{
  "source": "the supplement of paper PMC10567573",
  "parents": {"B1": {"name": "ATL3 (parent)", "chain": "FSFRYQQELEEEIKELYENFCKHN"}, "B2": {"name": "ACBD3 (parent)", "chain": "YVASHKIEKEEQEKKRKEEEERRR"}},
  "data": [
    {"variants_of": "B1", "test": "protein stability index of a GFP-peptide fusion (GPS, HEK-293T) (PSI 1-6); higher = more stable", "conditions": "c terminus: a fixed tail appended", "values": [
      {"variant": "FPFRYQQELEEEIKELYENFCKHN", "note": "[S2P]", "protein stability index": 2.63},
      {"variant": "FYFRYQQELEEEIKELYENFCKHN", "note": "[S2Y]", "protein stability index": 2.73},
      {"variant": "FKFRYQQELEEEIKELYENFCKHN", "note": "[S2K]", "protein stability index": 2.58},
      {"variant": "FTFRYQQELEEEIKELYENFCKHN", "note": "[S2T]", "protein stability index": 2.36},
      {"variant": "FRFRYQQELEEEIKELYENFCKHN", "note": "[S2R]", "protein stability index": 2.62},
      {"variant": "FLFRYQQELEEEIKELYENFCKHN", "note": "[S2L]", "protein stability index": 1.85},
      {"variant": "FAFRYQQELEEEIKELYENFCKHN", "note": "[S2A]", "protein stability index": 2.51},
      {"variant": "FGFRYQQELEEEIKELYENFCKHN", "note": "[S2G]", "protein stability index": 2.53},
      {"variant": "FCFRYQQELEEEIKELYENFCKHN", "note": "[S2C]", "protein stability index": 3.27},
      {"variant": "FQFRYQQELEEEIKELYENFCKHN", "note": "[S2Q]", "protein stability index": 2.6},
      {"variant": "FIFRYQQELEEEIKELYENFCKHN", "note": "[S2I]", "protein stability index": 1.7},
      {"variant": "FMFRYQQELEEEIKELYENFCKHN", "note": "[S2M]", "protein stability index": 1.52},
      {"variant": "FEFRYQQELEEEIKELYENFCKHN", "note": "[S2E]", "protein stability index": 2.52},
      {"variant": "FNFRYQQELEEEIKELYENFCKHN", "note": "[S2N]", "protein stability index": 2.37},
      {"variant": "FVFRYQQELEEEIKELYENFCKHN", "note": "[S2V]", "protein stability index": 1.65},
      {"variant": "FFFRYQQELEEEIKELYENFCKHN", "note": "[S2F]", "protein stability index": 1.75},
      {"variant": "FWFRYQQELEEEIKELYENFCKHN", "note": "[S2W]", "protein stability index": 1.8},
      {"variant": "FHFRYQQELEEEIKELYENFCKHN", "note": "[S2H]", "protein stability index": 2.29},
      {"variant": "FDFRYQQELEEEIKELYENFCKHN", "note": "[S2D]", "protein stability index": 2.93},
      {"variant": "VSFRYQQELEEEIKELYENFCKHN", "note": "[F1V]", "protein stability index": 2.54},
      {"variant": "QSFRYQQELEEEIKELYENFCKHN", "note": "[F1Q]", "protein stability index": 3.11},
      {"variant": "PSFRYQQELEEEIKELYENFCKHN", "note": "[F1P]", "protein stability index": 3.43},
      {"variant": "GSFRYQQELEEEIKELYENFCKHN", "note": "[F1G]", "protein stability index": 3.93},
      {"variant": "NSFRYQQELEEEIKELYENFCKHN", "note": "[F1N]", "protein stability index": 3.74},
      {"variant": "ASFRYQQELEEEIKELYENFCKHN", "note": "[F1A]", "protein stability index": 2.78},
      {"variant": "MSFRYQQELEEEIKELYENFCKHN", "note": "[F1M]", "protein stability index": 2.03},
      {"variant": "WSFRYQQELEEEIKELYENFCKHN", "note": "[F1W]", "protein stability index": 1.95},
      {"variant": "ESFRYQQELEEEIKELYENFCKHN", "note": "[F1E]", "protein stability index": 4.04},
      {"variant": "RSFRYQQELEEEIKELYENFCKHN", "note": "[F1R]", "protein stability index": 1.95},
      {"variant": "HSFRYQQELEEEIKELYENFCKHN", "note": "[F1H]", "protein stability index": 3.35},
      {"variant": "DSFRYQQELEEEIKELYENFCKHN", "note": "[F1D]", "protein stability index": 3.8},
      {"variant": "KSFRYQQELEEEIKELYENFCKHN", "note": "[F1K]", "protein stability index": 3.01},
      {"variant": "LSFRYQQELEEEIKELYENFCKHN", "note": "[F1L]", "protein stability index": 3.32},
      {"variant": "TSFRYQQELEEEIKELYENFCKHN", "note": "[F1T]", "protein stability index": 3.87},
      {"variant": "CSFRYQQELEEEIKELYENFCKHN", "note": "[F1C]", "protein stability index": 3.11},
      {"variant": "ISFRYQQELEEEIKELYENFCKHN", "note": "[F1I]", "protein stability index": 2.46},
      {"variant": "YSFRYQQELEEEIKELYENFCKHN", "note": "[F1Y]", "protein stability index": 2.33},
      {"variant": "SSFRYQQELEEEIKELYENFCKHN", "note": "[F1S]", "protein stability index": 3.89},
      {"variant": "FSDRYQQELEEEIKELYENFCKHN", "note": "[F3D]", "protein stability index": 3.14},
      {"variant": "FSCRYQQELEEEIKELYENFCKHN", "note": "[F3C]", "protein stability index": 2.59},
      {"variant": "FSARYQQELEEEIKELYENFCKHN", "note": "[F3A]", "protein stability index": 2.93}
    ]},
    {"variants_of": "B2", "test": "protein stability index of a GFP-peptide fusion (GPS, HEK-293T) (PSI 1-6); higher = more stable", "conditions": "c terminus: a fixed tail appended", "values": [
      {"variant": "YVASHKIEKEMQEKKRKEEEERRR", "note": "[E11M]", "protein stability index": 2.2},
      {"variant": "YVASHKIEKEGQEKKRKEEEERRR", "note": "[E11G]", "protein stability index": 2.34},
      {"variant": "YVASHKIEKEPQEKKRKEEEERRR", "note": "[E11P]", "protein stability index": 1.76},
      {"variant": "YVASHKIEKEEQEKKRKEEEWRRR", "note": "[E21W]", "protein stability index": 2.67},
      {"variant": "YVASHKIEKEEQEKKRKEEECRRR", "note": "[E21C]", "protein stability index": 2.21},
      {"variant": "YVASHKIEKEEQEKKRKEEETRRR", "note": "[E21T]", "protein stability index": 2.38},
      {"variant": "YVASHKIEKEEQEKKRKEEEGRRR", "note": "[E21G]", "protein stability index": 2.03},
      {"variant": "YVASHKIEKEEQEKKRKEEEPRRR", "note": "[E21P]", "protein stability index": 2.35},
      {"variant": "YVASHKIEKEEQEKKRKEEEMRRR", "note": "[E21M]", "protein stability index": 2.04},
      {"variant": "YVASHKIEKEEQEKKRKEEEHRRR", "note": "[E21H]", "protein stability index": 3.13},
      {"variant": "YVASHKIEKEEQEKKRKEEEQRRR", "note": "[E21Q]", "protein stability index": 2.37},
      {"variant": "YVASHKIAKEEQEKKRKEEEERRR", "note": "[E8A]", "protein stability index": 2.23},
      {"variant": "YVASHKIGKEEQEKKRKEEEERRR", "note": "[E8G]", "protein stability index": 2.49},
      {"variant": "YVASHKICKEEQEKKRKEEEERRR", "note": "[E8C]", "protein stability index": 2.42},
      {"variant": "YVASHKIVKEEQEKKRKEEEERRR", "note": "[E8V]", "protein stability index": 2.1},
      {"variant": "YVAEHKIEKEEQEKKRKEEEERRR", "note": "[S4E]", "protein stability index": 3.05},
      {"variant": "YVAAHKIEKEEQEKKRKEEEERRR", "note": "[S4A]", "protein stability index": 2.9},
      {"variant": "YVADHKIEKEEQEKKRKEEEERRR", "note": "[S4D]", "protein stability index": 3.95},
      {"variant": "YVASSKIEKEEQEKKRKEEEERRR", "note": "[H5S]", "protein stability index": 3.07},
      {"variant": "YVASVKIEKEEQEKKRKEEEERRR", "note": "[H5V]", "protein stability index": 3.05},
      {"variant": "YVASQKIEKEEQEKKRKEEEERRR", "note": "[H5Q]", "protein stability index": 2.7},
      {"variant": "YVASFKIEKEEQEKKRKEEEERRR", "note": "[H5F]", "protein stability index": 2.24},
      {"variant": "YVASHKIEKCEQEKKRKEEEERRR", "note": "[E10C]", "protein stability index": 2.19},
      {"variant": "YVASHKIEKLEQEKKRKEEEERRR", "note": "[E10L]", "protein stability index": 2.95},
      {"variant": "YVASHKIEKYEQEKKRKEEEERRR", "note": "[E10Y]", "protein stability index": 2.08},
      {"variant": "YVASHKIEKPEQEKKRKEEEERRR", "note": "[E10P]", "protein stability index": 1.78},
      {"variant": "YVASHKIEKEEQEKKRKEEEEGRR", "note": "[R22G]", "protein stability index": 2.68},
      {"variant": "YVASHKIEKEEQEKKRKEEEEPRR", "note": "[R22P]", "protein stability index": 2.72},
      {"variant": "YVASHKIEKEEQEKKRKEEEEDRR", "note": "[R22D]", "protein stability index": 3.24},
      {"variant": "YVASHKIEKEEQEKKRKEEEETRR", "note": "[R22T]", "protein stability index": 3.28},
      {"variant": "YVASHKIEKEEQEKKRKEEEEQRR", "note": "[R22Q]", "protein stability index": 3.11},
      {"variant": "YVASHKIEKEEQEKKRKEEEEERR", "note": "[R22E]", "protein stability index": 3.02},
      {"variant": "YVASHKIEKEEQEKKRKEEEEIRR", "note": "[R22I]", "protein stability index": 3.59},
      {"variant": "YVASHKIEKEEQEKKRKEEEEHRR", "note": "[R22H]", "protein stability index": 2.42},
      {"variant": "YFASHKIEKEEQEKKRKEEEERRR", "note": "[V2F]", "protein stability index": 5.16},
      {"variant": "YGASHKIEKEEQEKKRKEEEERRR", "note": "[V2G]", "protein stability index": 5.36},
      {"variant": "YWASHKIEKEEQEKKRKEEEERRR", "note": "[V2W]", "protein stability index": 4.93},
      {"variant": "YAASHKIEKEEQEKKRKEEEERRR", "note": "[V2A]", "protein stability index": 4.73},
      {"variant": "YLASHKIEKEEQEKKRKEEEERRR", "note": "[V2L]", "protein stability index": 5.22},
      {"variant": "YRASHKIEKEEQEKKRKEEEERRR", "note": "[V2R]", "protein stability index": 5.49},
      {"variant": "YVASHKIEKEEQEKKRKEAEERRR", "note": "[E19A]", "protein stability index": 2.6},
      {"variant": "YVASHKIEKEEQEKKRKEREERRR", "note": "[E19R]", "protein stability index": 2.25},
      {"variant": "YVASHKIEKEEQEKKRKEGEERRR", "note": "[E19G]", "protein stability index": 2.03},
      {"variant": "YVASHKIEKEEQEKKRKEFEERRR", "note": "[E19F]", "protein stability index": 2.68},
      {"variant": "YVASHKIEKEEQEKKRKEKEERRR", "note": "[E19K]", "protein stability index": 2.48},
      {"variant": "YVASHKIEKEEQEKKRKENEERRR", "note": "[E19N]", "protein stability index": 1.94},
      {"variant": "YVASHKIEKEEQEKKRKEMEERRR", "note": "[E19M]", "protein stability index": 1.98},
      {"variant": "YVASHKIEKEEQEKKRKETEERRR", "note": "[E19T]", "protein stability index": 2.57},
      {"variant": "YVASHKIEKEEQEKKRKELEERRR", "note": "[E19L]", "protein stability index": 2.39},
      {"variant": "YVASHKIEKEEQEKKQKEEEERRR", "note": "[R16Q]", "protein stability index": 2.94},
      {"variant": "YVASHKIEKEEQEKKCKEEEERRR", "note": "[R16C]", "protein stability index": 2.67},
      {"variant": "YVASHKIEKEEQEKKGKEEEERRR", "note": "[R16G]", "protein stability index": 2.88},
      {"variant": "YVASHKIEKEEQEKKMKEEEERRR", "note": "[R16M]", "protein stability index": 3.23}
    ]}
  ]
}
